How the values were obtained:
[1] = biological target: T1, (His)6-KcsA, K+ channel from Streptomyces lividans (Streptomyces lividans), P0A334; assay: SDS-PAGE with Western blot; settings: remark: other sources report otherwise
T1 chain: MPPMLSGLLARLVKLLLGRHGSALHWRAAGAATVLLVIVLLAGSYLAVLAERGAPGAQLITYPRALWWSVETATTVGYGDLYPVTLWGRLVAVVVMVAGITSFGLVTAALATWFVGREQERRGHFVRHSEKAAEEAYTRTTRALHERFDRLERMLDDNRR

[2] = biological target: T1, (His)6-KcsA, K+ channel from …; assay: SEC; settings: remark: other sources report otherwise

stoichiometry N [1]: 4
stoichiometry N [2]: 4
B1: (His)6-KcsA, K+ channel from Streptomyces lividans, P0A334 1-160 (natural protein)
chain: T1 chain

Reference: publication PMC5662131
